Data reported in patent US20100203046A1 (Biogen, published 2010).
One block for each binder: values may come before it.

Legend:
human C1q (Sigma C0660) [1] = target: T1, human C1q (Sigma C0660) (human, UniProt P02745 23-245; P02746 28-253; P02747 29-245); test: C1q ELISA on CD2, purified
T1 construct: Bought protein; also called complement protein C1q

[2] = target: T2, human FcγRIIb (CD32b) on CHO-FcγRII cells (human, UniProt P31994 43-310); test: CD32b bridging assay, purified
T2 construct: whole, on cells
T2 sequence (looked up): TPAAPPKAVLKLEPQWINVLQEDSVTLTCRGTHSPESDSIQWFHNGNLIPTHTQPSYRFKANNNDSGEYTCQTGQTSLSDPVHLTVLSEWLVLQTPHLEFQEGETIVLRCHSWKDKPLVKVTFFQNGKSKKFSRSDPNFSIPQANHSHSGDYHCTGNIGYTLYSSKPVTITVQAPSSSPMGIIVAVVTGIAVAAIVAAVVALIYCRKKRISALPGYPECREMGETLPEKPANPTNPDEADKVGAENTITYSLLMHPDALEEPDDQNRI

[3] = target: T3, human FcγRI (CD64) on IFNγ-activated U937 cells (human, UniProt P12314 16-374); test: CD64 bridging assay, purified
T3 construct: whole, on cells; also called FcγR1

[4] = target: T4, human FcγRIII (CD16), CD16a (F158), on CD16-transfected Jurkat cells (human, UniProt P08637 17-254); test: CD16 bridging assay, purified
T4 construct: whole, on cells

[5] = target: T4, human FcγRIII (CD16), CD16a (F158), on …; test: CD16 bridging assay, transient
[6] = target: T4, human FcγRIII (CD16), CD16a (F158), on …; test: CD16 bridging assay, purified; remark: listed apart in the source
[7] = target: T4, human FcγRIII (CD16), CD16a (F158), on …; test: summary of Table 6 assays
[8] = target: T4, human FcγRIII (CD16), CD16a (F158), on …; test: CD16 bridging assay, transient; remark: listed apart in the source
human C1q (Sigma C0660) [9] = target: T1, human C1q (Sigma C0660); test: C1q ELISA on CD2, transient
[10] = target: T4, human FcγRIII (CD16), CD16a (F158), on …; test: CD16 bridging assay, purified; remark: listed apart in the source
[11] = target: T4, human FcγRIII (CD16), CD16a (F158), on …; test: CD16 bridging assay, transient; remark: listed apart in the source
[12] = target: T5, GST-tagged FcγRIII, CD16a (V158) (UniProt P08637 17-208, limits assumed); test: summary of Table 4 assays (CD16a)
T5 construct: the canonical entry carries F there; Captured by biotinylated anti-GST mAb on streptavidin donor beads; also called GST-FcγRIII; not shown: GST tag

[13] = target: T5, GST-tagged FcγRIII, CD16a (V158); test: AlphaScreen competition vs huIgG1 beads, purified
Procedure: The relative binding affinities to FcγRIII (CD16), of the variant antibodies, was determined using an AlphaScreen assay (Amplified Luminescent Proximity Homogeneous Assay, PerkinElmer, MA, USA). Laser excitation of a donor bead excites oxygen, which if in close proximity to an acceptor bead generates a cascade of chemiluminescent events, ultimately leading to fluorescence emission at 520-620 nm. […] The reaction was carried out for one hour in a 25 μl volume and plates were read in the Fusion Alpha reader (PerkinElmer).

[14] = target: Human FcγRIIIa on natural killer (NK) cells of a donor (human, UniProt P08637 17-254); test: cell-based or functional assay
[15] = target: T4, human FcγRIII (CD16), CD16a (F158), on …; test: summary of Table 5 assays
[16] = target: T4, human FcγRIII (CD16), CD16a (F158), on …; test: CD16 bridging assay, purified; remark: listed apart in the source
[17] = target: T4, human FcγRIII (CD16), CD16a (F158), on …; test: CD16 bridging assay, transient; remark: listed apart in the source

T1 sequence (P02745 23-245 limits assumed, chain 1 of 3): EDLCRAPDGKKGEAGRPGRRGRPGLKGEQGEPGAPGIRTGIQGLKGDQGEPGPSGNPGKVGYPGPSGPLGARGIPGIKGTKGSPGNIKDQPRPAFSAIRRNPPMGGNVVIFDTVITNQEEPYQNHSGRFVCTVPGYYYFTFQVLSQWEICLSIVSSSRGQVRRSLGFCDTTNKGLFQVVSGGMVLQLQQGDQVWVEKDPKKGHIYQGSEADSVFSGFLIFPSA
T1 sequence (P02746 28-253 limits assumed, chain 2 of 3): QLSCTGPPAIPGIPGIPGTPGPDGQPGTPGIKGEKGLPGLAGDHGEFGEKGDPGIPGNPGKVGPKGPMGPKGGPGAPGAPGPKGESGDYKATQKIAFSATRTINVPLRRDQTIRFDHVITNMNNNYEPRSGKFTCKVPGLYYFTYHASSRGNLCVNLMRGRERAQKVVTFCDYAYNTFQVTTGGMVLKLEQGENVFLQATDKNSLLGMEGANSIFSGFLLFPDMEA
T1 sequence (P02747 29-245 limits assumed, chain 3 of 3): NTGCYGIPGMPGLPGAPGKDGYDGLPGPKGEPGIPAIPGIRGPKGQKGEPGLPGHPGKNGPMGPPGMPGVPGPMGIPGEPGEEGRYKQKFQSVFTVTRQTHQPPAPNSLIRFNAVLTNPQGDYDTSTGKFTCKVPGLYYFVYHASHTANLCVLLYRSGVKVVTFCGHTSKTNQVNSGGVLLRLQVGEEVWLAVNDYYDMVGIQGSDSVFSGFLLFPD
T4 sequence (P08637 17-254): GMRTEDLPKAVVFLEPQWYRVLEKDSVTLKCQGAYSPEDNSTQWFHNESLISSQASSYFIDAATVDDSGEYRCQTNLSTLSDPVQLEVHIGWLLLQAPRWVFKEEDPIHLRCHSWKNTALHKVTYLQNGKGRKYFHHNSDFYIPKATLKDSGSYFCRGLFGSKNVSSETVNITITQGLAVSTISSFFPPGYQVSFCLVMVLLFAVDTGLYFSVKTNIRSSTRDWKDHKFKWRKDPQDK
T3 sequence (P12314 16-374): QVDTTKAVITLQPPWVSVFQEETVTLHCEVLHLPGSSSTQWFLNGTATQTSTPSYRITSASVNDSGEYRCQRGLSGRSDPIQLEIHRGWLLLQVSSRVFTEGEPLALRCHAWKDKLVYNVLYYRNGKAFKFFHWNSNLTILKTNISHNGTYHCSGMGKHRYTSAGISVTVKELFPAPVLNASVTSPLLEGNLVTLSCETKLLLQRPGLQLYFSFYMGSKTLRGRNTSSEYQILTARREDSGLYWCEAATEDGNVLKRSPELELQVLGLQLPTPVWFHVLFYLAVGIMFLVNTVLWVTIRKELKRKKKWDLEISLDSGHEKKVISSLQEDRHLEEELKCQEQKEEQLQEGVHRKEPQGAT
T5 sequence (P08637 17-208 F176V limits assumed): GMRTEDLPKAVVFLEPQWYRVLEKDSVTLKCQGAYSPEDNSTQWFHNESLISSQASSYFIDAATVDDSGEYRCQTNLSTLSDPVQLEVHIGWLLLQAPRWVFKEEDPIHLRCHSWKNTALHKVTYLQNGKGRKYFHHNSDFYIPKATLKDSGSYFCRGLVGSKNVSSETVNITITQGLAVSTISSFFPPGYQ
Sequence of Human FcγRIIIa on natural killer (NK) cells of a donor (P08637 17-254): as the sequence (P08637 17-254) above

B4: chCB6-huIgG1 D376Y (antibody, name in EU numbering)
heavy: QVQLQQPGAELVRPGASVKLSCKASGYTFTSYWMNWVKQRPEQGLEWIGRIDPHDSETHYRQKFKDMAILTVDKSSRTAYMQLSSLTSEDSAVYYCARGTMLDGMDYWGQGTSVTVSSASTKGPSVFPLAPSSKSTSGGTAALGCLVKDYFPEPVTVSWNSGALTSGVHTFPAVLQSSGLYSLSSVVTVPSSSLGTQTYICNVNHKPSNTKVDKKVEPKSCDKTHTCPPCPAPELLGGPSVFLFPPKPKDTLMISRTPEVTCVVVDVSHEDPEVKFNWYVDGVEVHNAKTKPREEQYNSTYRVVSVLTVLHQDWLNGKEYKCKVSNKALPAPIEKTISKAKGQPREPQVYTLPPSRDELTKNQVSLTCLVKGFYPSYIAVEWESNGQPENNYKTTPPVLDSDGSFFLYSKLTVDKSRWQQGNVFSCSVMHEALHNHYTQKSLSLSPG
light: QIVLTQSPAIMSASPGEKVTMTCRASSSVSHMHWYQQKSGTSPKRWIYDTSKLASGVPARFSGSGSGTSYSLTISSVEAEDAATYYCQQWSSNPLTFGAGTKLELKRTVAAPSVFIFPPSDEQLKSGTASVVCLLNNFYPREAKVQWKVDNALQSGNSQESVTEQDSKDSTYSLSSTLTLSKADYEKHKVYACEVTHQGLSSPVTKSFNRGEC
notes: copies: 2 + 2
fold decrease in binding vs WT [6]: 3 fold
fold decrease in binding vs WT (human C1q (Sigma C0660) [1]): 3 fold

B5: chCB6-huIgG1 D376K (antibody, name in EU numbering)
heavy: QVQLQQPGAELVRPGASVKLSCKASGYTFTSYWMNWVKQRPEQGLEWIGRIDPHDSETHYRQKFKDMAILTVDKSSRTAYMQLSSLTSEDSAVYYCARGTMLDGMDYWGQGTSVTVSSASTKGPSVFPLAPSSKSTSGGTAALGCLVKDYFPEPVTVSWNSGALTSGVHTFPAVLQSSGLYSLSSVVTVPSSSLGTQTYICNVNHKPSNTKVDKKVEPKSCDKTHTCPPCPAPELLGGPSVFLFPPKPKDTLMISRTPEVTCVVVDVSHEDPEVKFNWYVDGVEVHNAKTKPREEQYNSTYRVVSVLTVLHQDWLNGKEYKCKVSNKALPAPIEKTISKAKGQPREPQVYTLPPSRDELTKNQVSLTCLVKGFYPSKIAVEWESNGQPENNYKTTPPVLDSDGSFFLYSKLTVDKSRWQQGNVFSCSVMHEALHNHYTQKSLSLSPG
light: QIVLTQSPAIMSASPGEKVTMTCRASSSVSHMHWYQQKSGTSPKRWIYDTSKLASGVPARFSGSGSGTSYSLTISSVEAEDAATYYCQQWSSNPLTFGAGTKLELKRTVAAPSVFIFPPSDEQLKSGTASVVCLLNNFYPREAKVQWKVDNALQSGNSQESVTEQDSKDSTYSLSSTLTLSKADYEKHKVYACEVTHQGLSSPVTKSFNRGEC
notes: copies: 2 + 2
fold decrease in binding vs WT [7]: > 10 fold
fold decrease in binding vs WT [8]: 15 fold
binding result (human C1q (Sigma C0660) [9]): binds

B6: chCB6-huIgG1 S239D/I332E (antibody, name in EU numbering)
heavy: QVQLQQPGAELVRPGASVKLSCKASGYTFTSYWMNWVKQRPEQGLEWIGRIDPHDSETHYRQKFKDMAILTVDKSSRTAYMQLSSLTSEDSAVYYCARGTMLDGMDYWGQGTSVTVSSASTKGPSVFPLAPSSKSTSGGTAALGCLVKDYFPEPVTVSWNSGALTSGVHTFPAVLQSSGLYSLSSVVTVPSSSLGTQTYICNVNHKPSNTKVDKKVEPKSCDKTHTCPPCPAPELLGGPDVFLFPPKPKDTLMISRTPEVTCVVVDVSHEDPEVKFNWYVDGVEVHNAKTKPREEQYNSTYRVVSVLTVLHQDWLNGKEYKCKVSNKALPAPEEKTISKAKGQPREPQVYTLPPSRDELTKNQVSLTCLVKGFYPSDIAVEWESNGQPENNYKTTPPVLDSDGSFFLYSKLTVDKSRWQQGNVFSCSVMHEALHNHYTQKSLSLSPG
light: QIVLTQSPAIMSASPGEKVTMTCRASSSVSHMHWYQQKSGTSPKRWIYDTSKLASGVPARFSGSGSGTSYSLTISSVEAEDAATYYCQQWSSNPLTFGAGTKLELKRTVAAPSVFIFPPSDEQLKSGTASVVCLLNNFYPREAKVQWKVDNALQSGNSQESVTEQDSKDSTYSLSSTLTLSKADYEKHKVYACEVTHQGLSSPVTKSFNRGEC
notes: copies: 2 + 2
fold increase in binding vs WT [10]: 8 fold
binding result (human C1q (Sigma C0660) [1]): binds
fold increase in binding vs WT [11]: 12 fold
fold increase in binding vs WT [12]: > 10 fold
fold increase in binding vs WT [13]: 26 fold

B7: chCB6-huIgG1 triple mutant S298A/E333A/K334A (antibody, name in EU numbering)
heavy: QVQLQQPGAELVRPGASVKLSCKASGYTFTSYWMNWVKQRPEQGLEWIGRIDPHDSETHYRQKFKDMAILTVDKSSRTAYMQLSSLTSEDSAVYYCARGTMLDGMDYWGQGTSVTVSSASTKGPSVFPLAPSSKSTSGGTAALGCLVKDYFPEPVTVSWNSGALTSGVHTFPAVLQSSGLYSLSSVVTVPSSSLGTQTYICNVNHKPSNTKVDKKVEPKSCDKTHTCPPCPAPELLGGPSVFLFPPKPKDTLMISRTPEVTCVVVDVSHEDPEVKFNWYVDGVEVHNAKTKPREEQYNATYRVVSVLTVLHQDWLNGKEYKCKVSNKALPAPIAATISKAKGQPREPQVYTLPPSRDELTKNQVSLTCLVKGFYPSDIAVEWESNGQPENNYKTTPPVLDSDGSFFLYSKLTVDKSRWQQGNVFSCSVMHEALHNHYTQKSLSLSPG
light: QIVLTQSPAIMSASPGEKVTMTCRASSSVSHMHWYQQKSGTSPKRWIYDTSKLASGVPARFSGSGSGTSYSLTISSVEAEDAATYYCQQWSSNPLTFGAGTKLELKRTVAAPSVFIFPPSDEQLKSGTASVVCLLNNFYPREAKVQWKVDNALQSGNSQESVTEQDSKDSTYSLSSTLTLSKADYEKHKVYACEVTHQGLSSPVTKSFNRGEC
notes: Assay control; triple mutant as described by Shields et al; also called Triple Mutation S298A, E333A, K334A; copies: 2 + 2
ADCC NK cell, purified (fold increase vs WT) [14]: 21 fold
fold decrease in binding vs WT (human C1q (Sigma C0660) [1]): 2 fold
fold decrease in binding vs WT [3]: 4 fold
fold increase in binding vs WT [4]: 5 fold
fold increase in binding vs WT [5]: 10 fold
fold increase in binding vs WT [13]: 4 fold

Now from value to binder:

binding result (human C1q (Sigma C0660) [1]): no binding
fold decrease in binding vs WT [2]: 3 fold
binding result [3]: binds
fold decrease in binding vs WT [4]: 10 fold
fold decrease in binding vs WT [5]: 2 fold
B1: chCB6-huIgG1 L328N (antibody, name in EU numbering)
heavy: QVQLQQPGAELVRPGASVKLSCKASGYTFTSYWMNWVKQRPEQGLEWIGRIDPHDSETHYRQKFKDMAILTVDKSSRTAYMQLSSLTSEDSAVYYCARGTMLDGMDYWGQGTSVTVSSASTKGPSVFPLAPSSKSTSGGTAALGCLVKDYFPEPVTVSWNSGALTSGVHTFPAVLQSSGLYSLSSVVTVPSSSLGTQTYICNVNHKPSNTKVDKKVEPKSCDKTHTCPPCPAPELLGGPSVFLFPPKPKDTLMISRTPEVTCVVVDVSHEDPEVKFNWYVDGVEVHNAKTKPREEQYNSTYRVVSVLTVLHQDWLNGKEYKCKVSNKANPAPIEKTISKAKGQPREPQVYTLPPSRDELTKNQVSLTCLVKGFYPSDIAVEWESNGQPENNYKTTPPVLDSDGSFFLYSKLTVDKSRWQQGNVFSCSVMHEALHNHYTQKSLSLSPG
light: QIVLTQSPAIMSASPGEKVTMTCRASSSVSHMHWYQQKSGTSPKRWIYDTSKLASGVPARFSGSGSGTSYSLTISSVEAEDAATYYCQQWSSNPLTFGAGTKLELKRTVAAPSVFIFPPSDEQLKSGTASVVCLLNNFYPREAKVQWKVDNALQSGNSQESVTEQDSKDSTYSLSSTLTLSKADYEKHKVYACEVTHQGLSSPVTKSFNRGEC
notes: copies: 2 + 2

fold decrease in binding vs WT [6]: 3 fold
fold decrease in binding vs WT [7]: > 10 fold
fold decrease in binding vs WT [8]: 15 fold
binding result (human C1q (Sigma C0660) [9]): no binding
B2: chCB6-huIgG1 D376W (antibody, name in EU numbering)
heavy: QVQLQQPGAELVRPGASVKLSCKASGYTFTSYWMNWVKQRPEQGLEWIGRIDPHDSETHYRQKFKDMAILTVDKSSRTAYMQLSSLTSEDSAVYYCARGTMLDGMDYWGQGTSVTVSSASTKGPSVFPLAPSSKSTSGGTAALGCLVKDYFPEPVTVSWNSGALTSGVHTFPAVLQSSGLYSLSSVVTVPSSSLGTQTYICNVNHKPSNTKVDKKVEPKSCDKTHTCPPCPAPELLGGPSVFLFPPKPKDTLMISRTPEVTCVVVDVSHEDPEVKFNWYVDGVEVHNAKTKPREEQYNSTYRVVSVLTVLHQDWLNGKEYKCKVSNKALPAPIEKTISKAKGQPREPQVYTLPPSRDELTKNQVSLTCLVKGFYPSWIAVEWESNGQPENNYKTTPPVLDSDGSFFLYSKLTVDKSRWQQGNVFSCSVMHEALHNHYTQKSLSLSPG
light: QIVLTQSPAIMSASPGEKVTMTCRASSSVSHMHWYQQKSGTSPKRWIYDTSKLASGVPARFSGSGSGTSYSLTISSVEAEDAATYYCQQWSSNPLTFGAGTKLELKRTVAAPSVFIFPPSDEQLKSGTASVVCLLNNFYPREAKVQWKVDNALQSGNSQESVTEQDSKDSTYSLSSTLTLSKADYEKHKVYACEVTHQGLSSPVTKSFNRGEC
notes: copies: 2 + 2

fold increase in binding vs WT [10]: 6 fold
binding result (human C1q (Sigma C0660) [1]): binds
fold increase in binding vs WT [11]: 4 fold
fold increase in binding vs WT [12]: > 10 fold
fold increase in binding vs WT [13]: 15 fold
B3: chCB6-huIgG1 S239D/I332D (antibody, name in EU numbering)
heavy: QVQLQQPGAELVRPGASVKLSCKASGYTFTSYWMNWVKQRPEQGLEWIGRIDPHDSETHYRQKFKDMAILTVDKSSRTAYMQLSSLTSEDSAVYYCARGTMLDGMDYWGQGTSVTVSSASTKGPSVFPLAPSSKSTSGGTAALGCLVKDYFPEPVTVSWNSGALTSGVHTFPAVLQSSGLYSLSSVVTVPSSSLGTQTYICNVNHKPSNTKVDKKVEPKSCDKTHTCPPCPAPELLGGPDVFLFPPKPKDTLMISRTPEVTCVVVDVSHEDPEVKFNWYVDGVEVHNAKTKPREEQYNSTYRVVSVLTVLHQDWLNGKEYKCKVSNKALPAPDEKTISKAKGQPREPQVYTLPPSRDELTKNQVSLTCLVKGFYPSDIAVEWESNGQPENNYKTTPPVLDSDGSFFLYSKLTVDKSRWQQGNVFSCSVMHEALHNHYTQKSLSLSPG
light: QIVLTQSPAIMSASPGEKVTMTCRASSSVSHMHWYQQKSGTSPKRWIYDTSKLASGVPARFSGSGSGTSYSLTISSVEAEDAATYYCQQWSSNPLTFGAGTKLELKRTVAAPSVFIFPPSDEQLKSGTASVVCLLNNFYPREAKVQWKVDNALQSGNSQESVTEQDSKDSTYSLSSTLTLSKADYEKHKVYACEVTHQGLSSPVTKSFNRGEC
notes: copies: 2 + 2

fold decrease in binding vs WT [15]: > 10 fold
fold decrease in binding vs WT [16]: 5 fold
fold decrease in binding vs WT (human C1q (Sigma C0660) [1]): 3 fold
fold decrease in binding vs WT (human C1q (Sigma C0660) [9]): 5 fold
fold decrease in binding vs WT [17]: 13 fold
B8: chCB6-huIgG1 Y296A (antibody, name in EU numbering)
heavy: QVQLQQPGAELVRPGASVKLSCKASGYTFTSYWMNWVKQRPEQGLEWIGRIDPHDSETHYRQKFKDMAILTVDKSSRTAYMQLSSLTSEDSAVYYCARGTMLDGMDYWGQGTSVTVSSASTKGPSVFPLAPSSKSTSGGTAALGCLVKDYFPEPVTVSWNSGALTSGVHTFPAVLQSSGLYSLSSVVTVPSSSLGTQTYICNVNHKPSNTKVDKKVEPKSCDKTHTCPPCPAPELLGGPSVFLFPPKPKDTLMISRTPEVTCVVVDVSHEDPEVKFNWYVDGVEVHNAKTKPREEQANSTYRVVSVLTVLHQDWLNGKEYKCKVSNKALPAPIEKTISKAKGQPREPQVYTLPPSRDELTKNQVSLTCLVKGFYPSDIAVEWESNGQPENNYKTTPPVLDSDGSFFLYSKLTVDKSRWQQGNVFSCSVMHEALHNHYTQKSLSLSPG
light: QIVLTQSPAIMSASPGEKVTMTCRASSSVSHMHWYQQKSGTSPKRWIYDTSKLASGVPARFSGSGSGTSYSLTISSVEAEDAATYYCQQWSSNPLTFGAGTKLELKRTVAAPSVFIFPPSDEQLKSGTASVVCLLNNFYPREAKVQWKVDNALQSGNSQESVTEQDSKDSTYSLSSTLTLSKADYEKHKVYACEVTHQGLSSPVTKSFNRGEC
notes: copies: 2 + 2

binding result (human C1q (Sigma C0660) [1]): no binding
binding result [2]: no binding
binding result [3]: no binding
binding result [5]: no binding
binding result [13]: no binding
B9: chCB6-huIgG1 T299C (antibody, name in EU numbering)
heavy: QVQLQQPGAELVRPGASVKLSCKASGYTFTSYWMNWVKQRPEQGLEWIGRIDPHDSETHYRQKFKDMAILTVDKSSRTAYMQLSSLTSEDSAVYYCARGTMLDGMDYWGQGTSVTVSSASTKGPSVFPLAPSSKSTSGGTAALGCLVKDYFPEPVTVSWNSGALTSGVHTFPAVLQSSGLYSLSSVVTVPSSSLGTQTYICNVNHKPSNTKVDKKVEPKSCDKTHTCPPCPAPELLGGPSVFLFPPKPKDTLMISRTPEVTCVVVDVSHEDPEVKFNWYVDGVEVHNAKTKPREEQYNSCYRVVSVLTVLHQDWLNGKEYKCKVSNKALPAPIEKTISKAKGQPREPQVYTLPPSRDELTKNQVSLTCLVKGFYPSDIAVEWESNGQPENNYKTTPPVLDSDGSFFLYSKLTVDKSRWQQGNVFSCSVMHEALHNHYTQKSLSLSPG
light: QIVLTQSPAIMSASPGEKVTMTCRASSSVSHMHWYQQKSGTSPKRWIYDTSKLASGVPARFSGSGSGTSYSLTISSVEAEDAATYYCQQWSSNPLTFGAGTKLELKRTVAAPSVFIFPPSDEQLKSGTASVVCLLNNFYPREAKVQWKVDNALQSGNSQESVTEQDSKDSTYSLSSTLTLSKADYEKHKVYACEVTHQGLSSPVTKSFNRGEC
notes: Assay control; copies: 2 + 2
